The target in assay [1] is T1, RB200 (human, UniProt P00533 25-645; P21860 20-643).
T1 construct: extracellular domain; Purified over Ni-Sepharose, so a His tag is likely on one chain, but none is described; also called parent heterodimer RB200; EGFR/HER3 heterodimer
The assay can be described thus: displacement of Eu-EGF from immobilised RB200 by unlabeled HB-EGF. As for the experimental part:
(§1) Plates were incubated at RT for 2 hrs and then rinsed 3 times with DELFIA wash buffer. […] The plates were incubated at RT for 2 hrs followed by three quick rinse with ice-cold Delfia wash buffer containing0.02% Tween-20. To quantify bound Eu-ligands 130 μl/well of Delfia enhancement solution was added and the plates were read on a fluorescence plate reader (Envision, model 2100, PerkinElmer).

For the next assay, the target named is T2, RB242 (human, UniProt P00533 25-645; P21860 20-643).
T2 construct: extracellular domain; purified to about 95% homogeneity; also called optimized hermodulin variant RB242
Put plainly: displacement of Eu-EGF from immobilised RB242 by unlabeled HB-EGF. The procedure:
as §1

The target in assay [2] is T1, RB200. Put plainly: Eu-NRG1-β saturation binding (DELFIA), purified heterodimer immobilised on anti-human Fc plate. The procedure: as §1
A further assay addresses T3, HER3:Fc mutant D343L (human, UniProt P21860 20-643).
T3 construct: extracellular domain
The assay can be described thus: HER3:Fc mutant ligand binding screen.

For the next assay, the target named is T4, HER3:Fc mutant N103K (human, UniProt P21860 20-643).
T4 construct: extracellular domain
The assay can be described thus: HER3:Fc mutant ligand binding screen.

The next assay deals with T5, HER3:Fc mutant C481R (human, UniProt P21860 20-643).
T5 construct: extracellular domain
The assay can be described thus: HER3:Fc mutant ligand binding screen.

The target of the next assay is T6, HER3:Fc mutant H565E (human, UniProt P21860 20-643).
T6 construct: extracellular domain
Put plainly: HER3:Fc mutant ligand binding screen.

Another assay has as its target T7, HER3:Fc mutant D325N (human, UniProt P21860 20-643).
T7 construct: extracellular domain
Put plainly: HER3:Fc mutant ligand binding screen.

For the next assay, the target named is T8, HER3:Fc mutant F96L (human, UniProt P21860 20-643).
T8 construct: extracellular domain
Put plainly: HER3:Fc mutant ligand binding screen.

For another assay, the target named is T9, HER3:Fc mutant A439D (human, UniProt P21860 20-643).
T9 construct: extracellular domain
Put plainly: HER3:Fc mutant ligand binding screen.

A further assay addresses T10, HER3:Fc mutant V19Q (human, UniProt P21860 20-643).
T10 construct: extracellular domain
The assay can be described thus: HER3:Fc mutant ligand binding screen.

In the next assay the target is T11, HER3:Fc mutant L102S (human, UniProt P21860 20-643).
T11 construct: extracellular domain
Put plainly: HER3:Fc mutant ligand binding screen.

The target in a further assay is T12, HER3:Fc mutant K415S (human, UniProt P21860 20-643).
T12 construct: extracellular domain
The assay can be described thus: HER3:Fc mutant ligand binding screen.

A further assay concerns the target T13, HER3:Fc mutant D343I (human, UniProt P21860 20-643).
T13 construct: extracellular domain
Put plainly: HER3:Fc mutant ligand binding screen.

The target in the next assay is T14, HER3Y246A:Fc (human, UniProt P21860 20-643).
T14 construct: extracellular domain; Screened as an Fc fusion homodimer in conditioned medium
Put plainly: HER3:Fc mutant ligand binding screen.

Another assay has as its target T15, HER3:Fc mutant Y436L (human, UniProt P21860 20-643).
T15 construct: extracellular domain
Put plainly: HER3:Fc mutant ligand binding screen.

Another assay addresses T16, HER3:Fc mutant D343F (human, UniProt P21860 20-643).
T16 construct: extracellular domain
The assay can be described thus: HER3:Fc mutant ligand binding screen.

A further assay has as its target T17, HER3:Fc mutant S18T (human, UniProt P21860 20-643).
T17 construct: extracellular domain
Put plainly: HER3:Fc mutant ligand binding screen.

In a further assay the target is T18, HER3:Fc mutant S438T (human, UniProt P21860 20-643).
T18 construct: extracellular domain
Put plainly: HER3:Fc mutant ligand binding screen.

Another assay addresses T19, HER3:Fc mutant L48Y (human, UniProt P21860 20-643).
T19 construct: extracellular domain
The assay can be described thus: HER3:Fc mutant ligand binding screen.

The next assay deals with T20, HER3:Fc mutant D343H (human, UniProt P21860 20-643).
T20 construct: extracellular domain
Put plainly: HER3:Fc mutant ligand binding screen.

The next assay deals with T21, HER3:Fc mutant G563Q (human, UniProt P21860 20-643).
T21 construct: extracellular domain
Put plainly: HER3:Fc mutant ligand binding screen.

Assay [3] has as its target T1, RB200. Put plainly: 125I-NRG1-β saturation binding, heterodimer immobilised on anti-Fc coated plate.

From US20100278801A1 (published 2010) come the findings set out here.

B1: HB-EGF (ligand, UniProt Q99075 63-148, looked up)
chain: DLQEADLDLLRVTLSSKPQALATPNKEEHGKRKKKGKGLGKKRDPCLRKYKDFCIHGECKYVKELRAPSCICHPGYHGERCHGLSL
For B1, the inhibition constant Ki (in general, the dissociation constant of the complex between target and ligand, obtained from inhibition or displacement) in the assay with RB200 [1] stood at 20.1 nM; with RB242 it was 1.3 nM.

B2: NRG1-β (ligand, UniProt Q02297-6 177-241, looked up)
chain: SHLVKCAEKEKTFCVNGGECFMVKDLSNPSRYLCKCPNEFTGDRCQNYVMASFYKHLGIEFMEAE
notes: also called NRG1β1; NRGβ1
As to B2, the values for the Kd with RB200 [2] and with RB200 [3] were 3.1 nM and 12.3 nM, respectively. Besides, the binding result with HER3:Fc mutant D343L, with HER3:Fc mutant N103K, in the assay with HER3:Fc mutant C481R, with HER3:Fc mutant H565E, with HER3:Fc mutant D325N and in the assay with HER3:Fc mutant F96L was “no binding” in each case. The binding result is listed as “no binding” with HER3:Fc mutant A439D; “no binding” with HER3:Fc mutant V19Q; “no binding” with HER3:Fc mutant L102S; “no binding” with HER3:Fc mutant K415S; “no binding” in the assay with HER3:Fc mutant D343I; “binds” in the assay with HER3Y246A:Fc. The binding result in the assay with HER3:Fc mutant Y436L, in the assay with HER3:Fc mutant D343F, in the assay with HER3:Fc mutant S18T, with HER3:Fc mutant S438T, with HER3:Fc mutant L48Y and with HER3:Fc mutant D343H was “no binding” each time. In addition, in the assay with HER3:Fc mutant G563Q, the binding result is “no binding”.
